How the values were obtained:
Human CXCR2 [1] = target: T1, Human CXCR2 (human, UniProt P25025 1-360); assay: cell-based or functional assay
T1 sequence: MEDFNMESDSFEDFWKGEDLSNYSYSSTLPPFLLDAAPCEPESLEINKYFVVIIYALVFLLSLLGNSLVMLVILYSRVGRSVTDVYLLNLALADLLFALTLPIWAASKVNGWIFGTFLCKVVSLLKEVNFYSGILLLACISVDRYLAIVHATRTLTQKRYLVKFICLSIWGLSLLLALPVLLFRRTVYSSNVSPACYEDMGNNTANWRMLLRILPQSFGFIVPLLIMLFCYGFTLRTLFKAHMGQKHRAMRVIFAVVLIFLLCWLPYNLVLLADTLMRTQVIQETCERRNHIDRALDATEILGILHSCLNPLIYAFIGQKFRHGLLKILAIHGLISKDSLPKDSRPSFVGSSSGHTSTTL

Cynomolgus CXCR2 [2] = target: T2, Cynomolgus CXCR2 (cynomolgus, UniProt Q28519 3-353 (rhesus entry)); assay: cell-based or functional assay
T2 chain: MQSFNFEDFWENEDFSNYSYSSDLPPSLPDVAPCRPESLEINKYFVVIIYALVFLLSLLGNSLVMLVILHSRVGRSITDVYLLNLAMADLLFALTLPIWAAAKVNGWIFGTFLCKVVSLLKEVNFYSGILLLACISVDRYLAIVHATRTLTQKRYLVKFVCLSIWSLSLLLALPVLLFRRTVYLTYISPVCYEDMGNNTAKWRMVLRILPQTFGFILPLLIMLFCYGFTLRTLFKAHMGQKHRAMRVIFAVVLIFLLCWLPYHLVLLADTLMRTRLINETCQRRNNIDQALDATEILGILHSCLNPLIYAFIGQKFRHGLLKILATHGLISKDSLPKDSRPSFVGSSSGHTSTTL

Human CXCR2 [3] = target: T1, Human CXCR2; assay: cell-based or functional assay; remark: listed apart in the source
Cynomolgus CXCR2 [4] = target: T2, Cynomolgus CXCR2; assay: FACS competition vs 3 nM FMAT-Blue Gro-α
Procedure: (§1) Multivalent anti-CXCR2Nanobodies were titrated against 3 nM FMAT-Blue-labeled Gro-α in the FACS ligand competition assay on human and cynomolgus CXCR2 (Table 14). On human CXCR2, blocking potencies range between double digit nM and sub-nM whereas on cynomolgus CXCR2, they range between single and double digit nM.

Human CXCR2 [5] = target: T1, Human CXCR2; assay: FACS competition vs 3 nM FMAT-Blue Gro-α
Procedure: as §1

Cynomolgus CXCR2 [6] = target: T2, Cynomolgus CXCR2; assay: cell-based or functional assay
Human CXCR2 [7] = target: T1, Human CXCR2; assay: cell-based or functional assay; remark: listed apart in the source
Human CXCR2 [8] = target: T1, Human CXCR2; assay: cell-based or functional assay; remark: listed apart in the source
Cynomolgus CXCR2 [9] = target: T2, Cynomolgus CXCR2; assay: cell-based or functional assay
Human CXCR2 [10] = target: T1, Human CXCR2; assay: cell-based or functional assay; remark: listed apart in the source
Cynomolgus CXCR2 [11] = target: T2, Cynomolgus CXCR2; assay: FACS hGro-α competition
Human CXCR2 [12] = target: T1, Human CXCR2; assay: FACS hGro-α competition

B1: CXCR20026 (bispecific antibody)
chain: EVQLVESGGGLVQPGGSLRLSCVASGRIFSSNAMGWFRQAPGKEREFVAAITWRSGGSAYYADSAKGRFTISRDNAKNTVYLQMNSLKPEDTAVYYCAAGGSSWLSFPPDYWGQGTQVTVSSGGGGSGGGGSGGGGSGGGGSGGGGSGGGGSGGGGSEVQLVESGGGLVQAGESLRLSCAASGSTFDFKVMGWYRQPPGKQREGVAAIRLSGNMHYAESVKGRFTISKANAKNTVYLQMNSLRPEDTAVYYCKVNIRGQDYWGQGTQVTVSS
notes: Biparatopic: two VHH joined by a GlySer linker; also called 163E3-35GS-127D1; 163E3-127D1; not shown: C-terminal c-myc tag and His6 tag coded by pAX100
For B1, the “IC50 (M) at 5 nM GROα (inhibition of GRO-α, FIG. 2)” value (Human CXCR2 [1]) was 6.53e-10 M, the “IC50 (M) at 15 nM GROα (inhibition of GRO-α, FIG. 2)” value (Human CXCR2 [1]) was 1.98e-09 M and the “IC50 (M) at 150 nM GROα (inhibition of GRO-α, FIG. 2)” value (Human CXCR2 [1]) was 6.71e-08 M. For the same binder, the “FLIPR % inhibition of max” value (Cynomolgus CXCR2 [2]) was 100%, the “FLIPR IC50 (GRO-α induced calcium release)” value (Cynomolgus CXCR2 [2]) was 9.1 nM and the “FLIPR % inhibition of max” value (Human CXCR2 [3]) was 100%. The “FLIPR IC50 (GRO-α induced calcium release)” value (Human CXCR2 [3]) was 12.3 nM, the “% inhibition of max” value (Cynomolgus CXCR2 [4]) was 99% and the IC50 (Cynomolgus CXCR2 [4]) was 1.82 nM. For the same binder, the “% inhibition of max” value (Human CXCR2 [5]) was 99.5%, the IC50 (Human CXCR2 [5]) was 0.9 nM and the “Cynomologus WBSC IC50 (rhGROα)” value (Cynomolgus CXCR2 [6]) was 0.26 nM. The “Human Chemotaxis IC50 (rhGROα)” value (Human CXCR2 [7]) was 0.14 nM, the “Human WBSC IC50 (rhGROα)” value (Human CXCR2 [7]) was 0.165 nM and the “[35S]GTPγS % inhibition of max (GRO-α)” value (Human CXCR2 [8]) was 100%. For the same binder, the “[35S]GTPγS IC50 (GRO-α)” value (Human CXCR2 [8]) was 0.809 nM.

B2: CXCR20059 (VHH)
VHH: EVQLLESGGGLVQPGGSLRLSCAASGSILTINAMGWYRQAPGKQRELVVRRTRGGSTTYQDSVKGRFTISADISKKTMYLQMNSLRPEDTAVYYCLLDDRGGVYWGQGTLVTVSS
With B2 the “FLIPR hGro-α IC50” value (Cynomolgus CXCR2 [9]) was 19000 nM, the “FLIPR hGro-α IC50” value (Human CXCR2 [10]) was 390 nM and the IC50 (Cynomolgus CXCR2 [11]) was 19 nM. For the same binder, the IC50 (Human CXCR2 [12]) was 1.5 nM.

B3: CXCR20063 (VHH)
VHH: EVQLLESGGGLVQPGGSLRLSCAASGSILTINAMGWYRQAPGKQRELVVRRTRGGSTTYQDSVKGRFTISADISKNTMYLQMNSLRPEDTAVYYCLLDDRGGVYWGQGTLVTVSS
In the case of B3, the “FLIPR hGro-α IC50” value (Cynomolgus CXCR2 [9]) is reported as 24000 nM, the “FLIPR hGro-α IC50” value (Human CXCR2 [10]) is reported as 6100 nM and the IC50 (Cynomolgus CXCR2 [11]) is reported as 54 nM.

B4: CXCR20014 (bispecific antibody)
chain: EVQLVESGGGLVQPGGSLRLSCVASGSIVRINTMGWYRQTPGKQRELVADITSGGNINYIDAVKGRFTISRDNTKNTVYLQMNSLKPEDTAVYYCNAEIVVLVGVWTQRARTGNYWGQGTQVTVSSGGGGSGGGGSGGGGSGGGGSGGGGSGGGGSGGGGSEVQLVESGGELVQPGGSLRLSCAASGSILTINAMGWYRQAPGKQRELVVRRTRGGSTTYQDSVKGRFTISADIAKKTMYLQMNSLKPEDTAVYYCMLDDRGGVYWGQGTQVTVSS
notes: Biparatopic: two VHH joined by a GlySer linker; also called 97A9-35GS-2B2; 97A9-2B2; not shown: C-terminal c-myc tag and His6 tag coded by pAX100
In the case of B4, the “FLIPR % inhibition of max” value (Cynomolgus CXCR2 [2]) is reported as 100%, the “FLIPR IC50 (GRO-α induced calcium release)” value (Cynomolgus CXCR2 [2]) is reported as 13.7 nM and the “FLIPR % inhibition of max” value (Human CXCR2 [3]) is reported as 100%. The “FLIPR IC50 (GRO-α induced calcium release)” value (Human CXCR2 [3]) was 6.84 nM, the “% inhibition of max” value (Cynomolgus CXCR2 [4]) was 98.5% and the IC50 (Cynomolgus CXCR2 [4]) was 3.9 nM. For the same binder, the “% inhibition of max” value (Human CXCR2 [5]) was 99.7%, the IC50 (Human CXCR2 [5]) was 1.59 nM and the “Cynomologus WBSC IC50 (rhGROα)” value (Cynomolgus CXCR2 [6]) was 0.16 nM. The “Human Chemotaxis IC50 (rhGROα)” value (Human CXCR2 [7]) was 0.16 nM, the “Human WBSC IC50 (rhGROα)” value (Human CXCR2 [7]) was 0.445 nM and the “[35S]GTPγS % inhibition of max (ENA-78)” value (Human CXCR2 [8]) was 100%. For the same binder, the “[35S]GTPγS % inhibition of max (GRO-α)” value (Human CXCR2 [8]) was 100%, the “[35S]GTPγS % inhibition of max (IL-8)” value (Human CXCR2 [8]) was 100% and the “[35S]GTPγS IC50 (ENA-78)” value (Human CXCR2 [8]) was 1.66 nM. For the same binder, the “[35S]GTPγS IC50 (GRO-α)” value (Human CXCR2 [8]) was 1.38 nM and the “[35S]GTPγS IC50 (IL-8)” value (Human CXCR2 [8]) was 1.13 nM.

B5: CXCR20035 (other)
chain: EVQLVESGGGLVQAGGSLTLSCAVSGSTFRINTMGWYRRAPGKQRELVAARDRGGYINYVDSVKGRFTVSRDNAKPTMYLQMNSLKPEDTAVYYCHAGTQDRTGRNFDRWGQGTQVTVSSGGGGSGGGGSGGGGSGGGGSGGGGSGGGGSGGGGSEVQLVESGGGLVQPGGSLRLSCVASGRIFSSNAMGWFRQAPGKEREFVAAITWRSGGSAYYADSAKGRFTISRDNAKNTVYLQMNSLKPEDTAVYYCAAGGSSWLSFPPDYWGQGTQVTVSS
notes: Biparatopic: two VHH joined by a GlySer linker; also called 54B12-35GS-163E3; 54B12-163E3; not shown: C-terminal c-myc tag and His6 tag coded by pAX100
With B5 the “FLIPR % inhibition of max” value (Cynomolgus CXCR2 [2]) was 100%, the “FLIPR IC50 (GRO-α induced calcium release)” value (Cynomolgus CXCR2 [2]) was 8.72 nM and the “FLIPR % inhibition of max” value (Human CXCR2 [3]) was 100%. For the same binder, the “FLIPR IC50 (GRO-α induced calcium release)” value (Human CXCR2 [3]) was 10.2 nM, the “% inhibition of max” value (Cynomolgus CXCR2 [4]) was 99% and the IC50 (Cynomolgus CXCR2 [4]) was 3.23 nM. The “% inhibition of max” value (Human CXCR2 [5]) was 99%, the IC50 (Human CXCR2 [5]) was 1 nM and the “Cynomologus WBSC IC50 (rhGROα)” value (Cynomolgus CXCR2 [6]) was 0.43 nM. For the same binder, the “Human WBSC IC50 (rhGROα)” value (Human CXCR2 [7]) was 0.24 nM, the “[35S]GTPγS % inhibition of max (ENA-78)” value (Human CXCR2 [8]) was 100% and the “[35S]GTPγS % inhibition of max (GRO-α)” value (Human CXCR2 [8]) was 100%. For the same binder, the “[35S]GTPγS % inhibition of max (IL-8)” value (Human CXCR2 [8]) was 100%, the “[35S]GTPγS IC50 (ENA-78)” value (Human CXCR2 [8]) was 1.17 nM and the “[35S]GTPγS IC50 (GRO-α)” value (Human CXCR2 [8]) was 0.844 nM. For the same binder, the “[35S]GTPγS IC50 (IL-8)” value (Human CXCR2 [8]) was 0.717 nM.

B6: CXCR20020 (bispecific antibody)
chain: EVQLVESGGGLVQAGESLRLSCAASGSTFDFKVMGWYRQPPGKQREGVAAIRLSGNMHYAESVKGRFTISKANAKNTVYLQMNSLRPEDTAVYYCKVNIRGQDYWGQGTQVTVSSGGGGSGGGGSGGGGSGGGGSGGGGSGGGGSGGGGSEVQLVESGGGLVQAGGSLRLSCAASGRTFSDYAMGWFRQAPGKEREFVAAITWNGGRVFYTASVKGRFTISRDNAKNTMYLQMNSLKPEDTAVYYCAADKDRRTDYLGHPVAYWGQGTQVTVSS
notes: Biparatopic: two VHH joined by a GlySer linker; also called 127D1-35GS-163D2; 127D1-163D2; not shown: C-terminal c-myc tag and His6 tag coded by pAX100
B6 was tested, and the “FLIPR % inhibition of max” value (Cynomolgus CXCR2 [2]) was 100%, the “FLIPR IC50 (GRO-α induced calcium release)” value (Cynomolgus CXCR2 [2]) was 1.64 nM and the “FLIPR % inhibition of max” value (Human CXCR2 [3]) was 100%. The “FLIPR IC50 (GRO-α induced calcium release)” value (Human CXCR2 [3]) was 6.98 nM, the “% inhibition of max” value (Cynomolgus CXCR2 [4]) was 98.5% and the IC50 (Cynomolgus CXCR2 [4]) was 1.78 nM. For the same binder, the “% inhibition of max” value (Human CXCR2 [5]) was 100%, the IC50 (Human CXCR2 [5]) was 0.99 nM and the “Cynomologus WBSC IC50 (rhGROα)” value (Cynomolgus CXCR2 [6]) was 0.12 nM. For the same binder, the “Human Chemotaxis IC50 (rhGROα)” value (Human CXCR2 [7]) was 0.143 nM, the “Human WBSC IC50 (rhGROα)” value (Human CXCR2 [7]) was 0.17 nM and the “[35S]GTPγS % inhibition of max (ENA-78)” value (Human CXCR2 [8]) was 100%. For the same binder, the “[35S]GTPγS % inhibition of max (GRO-α)” value (Human CXCR2 [8]) was 100%, the “[35S]GTPγS % inhibition of max (IL-8)” value (Human CXCR2 [8]) was 100% and the “[35S]GTPγS IC50 (ENA-78)” value (Human CXCR2 [8]) was 0.707 nM. For the same binder, the “[35S]GTPγS IC50 (GRO-α)” value (Human CXCR2 [8]) was 0.634 nM and the “[35S]GTPγS IC50 (IL-8)” value (Human CXCR2 [8]) was 0.619 nM.
